B1: Integrin beta-1 (Gallus gallus (Chicken)), P07228 (parent)
chain: MAETNLTLLTWAGILCCLIWSGSAQQGGSDCIKANAKSCGECIQAGPNCGWCKKTDFLQEGEPTSARCDDLAALKSKGCPEQDIENPRGSKRVLEDREVTNRKIGAAEKLKPEAITQIQPQKLVLQLRVGEPQTFSLKFKRAEDYPIDLYYLMDLSYSMKDDLENVKSLGTALMREMEKITSDFRIGFGSFVEKTVMPYISTTPAKLRNPCTGDQNCTSPFSYKNVLSLTSEGNKFNELVGKQHISGNLDSPEGGFDAIMQVAVCGDQIGWRNVTRLLVFSTDAGFHFAGDGKLGGIVLPNDGKCHLENNMYTMSHYYDYPSIAHLVQKLSENNIQTIFAVTEEFQAVYKELKNLIPKSAVGTLSSNSSNVIQLIIDAYNSLSSEVILENSKLPKEVTISYKSYCKNGVNDTQEDGRKCSNISIGDEVRFEINVTANECPKKGQNETIKIKPLGFTEEVEIHLQFICDCLCQSEGEPNSPACHDGNGTFECGACRCNEGRIGRLCECSTDEVNSEDMDAYCRRENSTEICSNNGECICGQCVCKKRENTNEVYSGKYCECDNFNCDRSNGLICGGNGICKCRVCECFPNFTGSACDCSLDTTPCMAGNGQICNGRGTCECGTCNCTDPKFQGPTCEMCQTCLGVCAEHKDCVQCRAFEKGEKKETCSQECMHFNMTRVESRGKLPQPVHPDPLSHCKEKDVGDCWFYFTYSVNSNGEASVHVVETPECPSGPDIIPIVAGVVAGIVLIGLALLLIWKLLMIIHDRREFAKFEKEKMNAKWDTGENPIYKSAVTTVVNPKYEGK

Variants of: B1
Settings: with flna_human FLNA

| Variant | effect of a mutation on the interaction |
| --- | --- |
| D764V | decreasing interaction |
| N785D | decreasing interaction |
| P786A | decreasing interaction |

Results, then the variant that gave them:

| effect of a mutation on the interaction | Variant |
| --- | --- |
| disrupting interaction | Y788A |
| decreasing interaction | Y788F |
| disrupting interaction | Y788E |
| decreasing interaction | N797I |
| decreasing interaction | N797D |

Source: IntAct's records for PubMed 9722563
